Our source for the Affinity values is patent US20180186880A1.

The experiment deals with B7-H3 ECD (extracellular domain of B7-H3) (UniProt Q5ZPR3). Kind of experiment: adsorption ELISA on B7-H3 ECD, serial dilutions of purified mAb, estimate of binding affinity.

B1: TRL4542 (antibody, V domains shown)
VH: QVQLVESGGDLVQPGESLRLSCAASGFIFSDAWMVWVRQAPGKGLEWVGRIKTNGDGGTTDLTEPVKGRFTISRDDSKNMVYLQMNNLRTEDTAIYYCTTAPGFWGQGTLVTVSS
VL: DIEMTQSPDSLAVSLGERATINCKSSHNLLYKSNNKNYLAWSQQKPGQPPRLLIYWASTRDSGVPDRFSGSGSGTDFTLTISSLQAEDVAVYYCHQYYGTKWTFGQGTRVEIKR
Turning to B1, the Affinity was 5 nM.
